Test results: article PMC10421056 (Science Advances, 2023)

Target: His-tagged histone H2B.9 (Arabidopsis, UniProt O23629 1-150)
Assay: reconstitution of histone heterodimers

His-tagged histone H2B.9, sequence (O23629 whole entry): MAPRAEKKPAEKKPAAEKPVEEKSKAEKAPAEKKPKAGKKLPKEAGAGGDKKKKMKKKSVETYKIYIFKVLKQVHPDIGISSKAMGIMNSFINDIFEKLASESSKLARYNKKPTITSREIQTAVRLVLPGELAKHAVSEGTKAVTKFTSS

| binding result | Binder |
| --- | --- |
| binds | His-tagged histone H2A.Z.9 (natural protein) not shown |
| binds | His-tagged histone H2A.X.3 (natural protein) MSSGAGSGTTKGGRGKPKATKSVSRSSKAGLQFPVGRIARFLKAGKYAERVGAGAPVYLSAVLEYLAAEVLELAGNAARDNKKTRIVPRHIQLAVRNDEELSKLLGSVTIANGGVLPNIHQTLLPSKVGKNKGDIGSASQEF |
